The source of these data is patent US4981788A, “Novel acetylpolyamine amidohydrolase” (Kyowa Hakko Kogyo Co., Ltd., priority 1987, dated 1991).

Holding throughout (type): biochemical, Mycoplana bullata
Substrate in data set [1]: CC(=O)NCCCCNCCCN
Kind of data set: Enzyme activity on acetylpolyamine substrates, partially purified product (substrate specificity, optimum pH/temperature, Km). The conditions noted are these: other: pH 7.0, Lineweaver-Burk plot. As for the experimental part:
(§1) Activity of the present enzyme (partially purified products) is measured according to the following procedure. That is, 0.1 ml of an enzyme solution is added to a reagent solution consisting of 1.5 ml of 0.1 M phosphate buffer (pH 7.0), 0.05 ml of 50 mM acetylpolyamine, 0.4 U of putrescine oxidase (when acetylputrescine, acetylcadaverine or acetylspermidine is used as substrate) or polyamine oxidase (when acetylspermidine or acetylspermine is used as substrate), 0.5 ml of 2.4 mM 4-aminoantipyrine, 0.5 ml of 42 mM phenol and 20 U of peroxidase. The mixture is incubated at 37° C., and the absorbance of quinoneimine pigment formed at 500 nm is measured.
(§2) In terms of the enzyme activity, the amount of enzyme that can hydrolyze 1 μmole of a substrate in one minute is defined as one unit (1 U).
(§3) The relative activities of acetylpolyamine amidohydrolases against various type of acetylpolyamine, defining the activities against acetylputrescine as 100 under a condition of pH 7.0, are as shown in Table 1 below.
(§4) Enzyme activity was measured at different pH levels ranging from 6 to 10 by using bis-Tris propane buffer solutions. The optimum pH was 9 for acetylputrescine and acetylcadaverine, and 8 for N^1 -acetylspermidine, N^8 -acetylspermidine and acetylspermine, as shown in FIG. 1.
(§5) The optimum working temperature for the present enzyme was about 50° C., when the relative activity was determined, using acetylputrescine as substrate, as shown in FIG. 4. The optimum temperatures for the other acetylpolyamine amidohydrolases were 30° to 40° C. This clearly distinguishes the present enzyme from the known enzymes.
(§6) Km values of the present enzyme and the other known enzymes for various types of acetylpolyamine at pH 7.0 were determined from the Line weaver-Burk plot [refer to J. Am. Chem. Soc., 56, 658 (1934)].

Substrate in data set [2]: CC(=O)NCCCCCN
The data set is described as above. The settings on record: other: pH 7.0, Lineweaver-Burk plot. As for the experimental part:
as §1, §2, §3, §4, §5, §6

Substrate in data set [3]: CC(=O)NCCCNCCCCN
The data set is described as above. The settings on record: other: pH 7.0, Lineweaver-Burk plot. How it is done:
as §1, §2, §3, §4, §5, §6

Substrate in data set [4]: CC(=O)NCCCCN
Put plainly: Enzyme activity on acetylpolyamine substrates, product purified to homogeneity (Method 2 / Method 3). The conditions noted are these: other: pH 9.0, Lineweaver-Burk plot. The source says:
(§7) [Method 2] (Assay when acetylputrescine, acetylcadaverine, N^1 -acetylspermidine and N^8 -acetylspermidine are used as substrate:)
(§8) The acetylpolyamine can be hydrolyzed by the acetylpolyamine amidohydrolase, as described in [Method 1], and the corresponding free polyamine thus formed is then oxidized by putrescine oxidase. Putrescine oxidase derived from Micrococcus rubens is known to have an activity upon putrescine, cadaverine and spermidine [Adachi, et al., Agric. Biol. Chem, 30, 1202 (1966)]. […] The actual analytical procedure is as described below.
(§9) The above reagents, (b) through (h), were put in a cuvette (d: 1.0 cm) and the mixture was preincubated at 37° C. for 2 minutes. The substrate solution (a) was then added, and the resulting mixture was incubated at 37° C. Absorbance at 500 nm was measured over a period of 3 to 5 minutes, and the change in absorbance per minute (ΔODsample) was determined from the linear portion of the plotted curve. For control, the same procedure as above was carried out, using distilled water as reference.
(§10) One unit of acetylpolyamine amidohydrolase is defined as its amount necessary to hydrolyze 1 μmole of acetylputrescine at 37° C. for one minute (or the amount necessary to form 0.5 μmole of quinoneimine pigment formed in the method for measuring the enzyme activity described above).
(§11) [Method 3] (Assay when acetylspermine is used as substrate:)
(§12) Acetylspermine is hydrolyzed by the action of acetylpolyamine amidohydrolase into free form of spermine. The free form of spermine can be oxidized by a polyamine oxidase derived from Aspergillus terreus to produce hydrogen peroxide. […] Thus, the enzyme activity can be measured by quantitative determination of the hydrogen peroxide according to the method described above. […]
(§13) Reagents (b) through (d) given in item (1) were put in a test tube and the mixture was preincubated at 37° C. for 2 minutes. […] A sample solution (200 μl), taken from the eluate containing free form of spermine, was mixed in a cuvette with reagents (a) through (e) given in item (2) above, the mixture was incubated at 37° C. for 10 minutes, and the absorbance at 755 nm was measured. […]
(§14) The concentration of free form of spermine in the reaction mixture can be determined from a calibration curve previously prepared on the basis of aqueous soluitons of free form of spermine with different concentrations. […]
(§15) The activities upon acetylputrescine, acetylcadaverine, N^1 -acetylspermidine and N^8 -acetylspermidine were measured by [Method 2] in a phosphate buffer (pH 9.0) at a substrate concentration of 0.833 mM, and the activity upon acetyl-spermine was measured by [Method 3] under the same conditions. […] Km values, determined from the Lineweaver-Burk plot, are also listed in the same table. […]

Substrate in data set [5]: CC(=O)NCCCCNCCCN
The data set is described as above. The settings on record: other: pH 9.0, Lineweaver-Burk plot.
Excerpt: as §7, §8, §9, §10, §11, §12, §13, §14, §15

Substrate in data set [6]: CC(=O)NCCCCCN
The description is as above. The conditions noted are these: other: pH 9.0, Lineweaver-Burk plot.
Excerpt: as §7, §8, §9, §10, §11, §12, §13, §14, §15

Substrate in data set [7]: CC(=O)NCCCNCCCCN
The description is as above. The settings on record: other: pH 9.0, Lineweaver-Burk plot.
Excerpt: as §7, §8, §9, §10, §11, §12, §13, §14, §15

B1: acetylpolyamine amidohydrolase (the present enzyme, partially purified product) (Mycoplana ramosa) (protein)
chain: MRVIFSEDHKLRNAKTELYGGELVPPFEAPFRAEWILAAVKEAGFDDVVAPARHGLETVLKVHDAGYLNFLETAWDRWKAAGYKGEAIATSFPVRRTSPRIPTDIEGQIGYYCNAAETAISPGTWEAALSSMASAIDGADLIAAGHKAAFSLCRPPGHHAGIDMFGGYCFINNAAVAAQRLLDKGAKKIAILDVDFHHGNGTQDIFYERGDVFFASLHGDPAEAFPHFLGYAEETGKGAGAGTTANYPMGRGTPYSVWGEALTDSLKRIAAFGAEAIVVSLGVDTFEQDPISFFKLTSPDYITMGRTIAASGVPLLVVMEGGYGVPEIGLNVANVLKGVAG
notes: novel acetylpolyamine amidohydrolase of the present invention accumulated within the grown cells; made in house; host or cells: Mycoplana (natural producer; cells grown in culture)
By Km is commonly meant the substrate concentration at which the rate is half of its maximum. Consider B1, for which the values for the Km in data set [1], in data set [2] and in data set [3] were 560 µM, 130 µM and 270 µM, respectively.

B2: acetylpolyamine amidohydrolase (the present enzyme, product purified to homogeneity) (Mycoplana ramosa) (protein)
chain: MRVIFSEDHKLRNAKTELYGGELVPPFEAPFRAEWILAAVKEAGFDDVVAPARHGLETVLKVHDAGYLNFLETAWDRWKAAGYKGEAIATSFPVRRTSPRIPTDIEGQIGYYCNAAETAISPGTWEAALSSMASAIDGADLIAAGHKAAFSLCRPPGHHAGIDMFGGYCFINNAAVAAQRLLDKGAKKIAILDVDFHHGNGTQDIFYERGDVFFASLHGDPAEAFPHFLGYAEETGKGAGAGTTANYPMGRGTPYSVWGEALTDSLKRIAAFGAEAIVVSLGVDTFEQDPISFFKLTSPDYITMGRTIAASGVPLLVVMEGGYGVPEIGLNVANVLKGVAG
notes: novel acetylpolyamine amidohydrolase of the present invention accumulated within the grown cells; made in house; host or cells: Mycoplana (natural producer)
For the protein B2, the Km turned out to be 220 µM in data set [4], 310 µM in data set [5], 50 µM in data set [6] and 130 µM in data set [7].
